In patent US20200054723A1 (ALLAKOS, published 2020):
“And” between values parts separate entries of the source, which are not always exact repeats. Equal values may be shown once.

These binders were tested against T1, recombinant human Siglec-8 extracellular domain (ECD) (human, UniProt Q9NYZ4 17-363) (assay: ELISA, coated Siglec-8 ECD).
T1 construct: extracellular domain; also called Siglec-8 ECD; full Siglec-8 ECD
Experimental: Binding of recombinant human Siglec-8 extracellular domain (ECD) by chimeric 2E2 and chimeric 2C4 IgG1K antibodies was measured by ELISA. […] Three-fold serial dilutions of a chimeric antibody (ch2E2 or ch2C4) or mouse antibody (m2E2 or m2C4) in 0.2% BSA/TBS (starting concentration was 5000 ng/mL) was added to each coated well. The plate was incubated for 2 hours at room temperature and the wells were subsequently washed before addition of goat-anti-human Fc peroxidase conjugate (1:10000 dilution) or anti-mouse Fc peroxidase conjugate (1:30000 dilution) diluted in 0.2% BSA/TBS solution. The plate was incubated for 45 minutes at room temperature, followed by washing and addition of 30 μL K-blue HRP substrate (SkyBio Ltd) to each well. After incubation at room temperature for 15 minutes, the reaction was stopped by adding 10 μL of Red Stop solution (SkyBio Ltd) to each well. The optical density or the experimental samples was read at 650 nm using the ELISA reader PHERAStar FS (BMG Labtech).
The fully humanized antibody heavy and light chains were combined and compared with the chimeric antibody to determine if replacing the 4 Å and canonical framework residues and interface residues was sufficient to successfully humanize 2E2. Expi293 cells were co-transfected with combinations of different humanized light chain vectors in association with different humanized heavy chain vectors. Siglec-8 antigen was used to measure antibody binding by ELISA as described in Example 1.

T1 sequence (Q9NYZ4 17-363): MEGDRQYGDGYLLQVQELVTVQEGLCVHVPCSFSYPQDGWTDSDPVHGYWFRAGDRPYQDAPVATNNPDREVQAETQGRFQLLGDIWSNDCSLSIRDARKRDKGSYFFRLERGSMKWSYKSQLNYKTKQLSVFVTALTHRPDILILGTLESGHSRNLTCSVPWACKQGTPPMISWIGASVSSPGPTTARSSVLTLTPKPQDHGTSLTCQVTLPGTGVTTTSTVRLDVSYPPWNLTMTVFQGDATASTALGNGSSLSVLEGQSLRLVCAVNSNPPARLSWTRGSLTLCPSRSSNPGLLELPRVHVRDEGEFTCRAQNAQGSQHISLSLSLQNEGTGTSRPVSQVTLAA

| Binder | EC50 |
| --- | --- |
| mouse 2C4 antibody (antibody, mouse IgG1, kappa, murine IgG1/kappa; also called mo2C4; m2C4) heavy: QVQLKRASGPGLVAPSQSLSITCTVSGFSLTIYGAHWVRQPPGKGLEWLGVIWAGGSTNYNSALMSRLSISKDNSKSQVFLKINSLQTDDTALYYCARDGSSPYYYSMEYWGQGTSVTVSSAKTTPPSVYPLAPGSAAQTNSMVTLGCLVKGYFPEPVTVTWNSGSLSSGVHTFPAVLESDLYTLSSSVTVPSSPRPSETVTCNVAHPASSTKVDKKIVPRDCGCKPCICTVPEVSSVFIFPPKPKDVLTITLTPKVTCVVVDISKDDPEVQFSWFVDDVEVHTAQTQPREEQFNSTFRSVSELPIMHQDWLNGKEFKCRVNSAAFPAPIEKTISKTKGRPKAPQVYTIPPPKEQMAKDKVSLTCMITDFFPEDITVEWQWNGQPAENYKNTQPIMNTNGSYFVYSKLNVQKSNWEAGNTFTCSVLHEGLHNHHTEKSLSHSPG light: EIILTQSPAIMSASPGEKVSITCSATSSVSYMHWFQQKPGTSPKLWIYSTSNLASGVPVRFSGSGSGTSYSLTISRMEAEDAATYYCQQRSSYPFTFGSGTKLEIKADAAPTVSIFPPSSEQLTSGGASVVCFLNNFYPKDINVKWKIDGSERQNGVLNSWTDQDSKDSTYSMSSTLTLTKDEYERHNSYTCEATHKTSTSPIVKSFNRNEC | 115 pM |
| HAKA (antibody, human IgG1, V domains shown, human IgG1/kappa) VH: EVQLVESGGGLVQPGGSLRLSCAASGFSLTIYGAHWVRQAPGKGLEWVSVIWAGGSTNYNSALMSRFTISKDNSKNTVYLQMNSLRAEDTAVYYCARDGSSPYYYSMEYWGQGTTVTVSS VL: EIVLTQSPATLSLSPGERATLSCSATSSVSYMHWFQQKPGQAPRLLIYSTSNLASGIPARFSGSGSGTDFTLTISSLEPEDFAVYYCQQRSSYPFTFGPGTKLDIK | 85 pM and 58 pM |
| HAKB (antibody, human IgG1, V domains shown, human IgG1/kappa) VH: EVQLVESGGGLVQPGGSLRLSCAASGFSLTIYGAHWVRQAPGKGLEWVSVIWAGGSTNYNSALMSRFTISKDNSKNTVYLQMNSLRAEDTAVYYCARDGSSPYYYSMEYWGQGTTVTVSS VL: EIILTQSPATLSLSPGERATLSCSATSSVSYMHWFQQKPGQAPRLWIYSTSNLASGVPARFSGSGSGTDYTLTISSLEPEDFAVYYCQQRSSYPFTFGPGTKLDIK | 71 pM |
| HAKC (antibody, human IgG1, V domains shown, human IgG1/kappa) VH: EVQLVESGGGLVQPGGSLRLSCAASGFSLTIYGAHWVRQAPGKGLEWVSVIWAGGSTNYNSALMSRFTISKDNSKNTVYLQMNSLRAEDTAVYYCARDGSSPYYYSMEYWGQGTTVTVSS VL: EIILTQSPATLSLSPGERATLSCSATSSVSYMHWFQQKPGQAPRLLIYSTSNLASGIPARFSGSGSGTDFTLTISSLEPEDFAVYYCQQRSSYPFTFGPGTKLDIK | 66 pM |
| HAKD (antibody, human IgG1, V domains shown, human IgG1/kappa) VH: EVQLVESGGGLVQPGGSLRLSCAASGFSLTIYGAHWVRQAPGKGLEWVSVIWAGGSTNYNSALMSRFTISKDNSKNTVYLQMNSLRAEDTAVYYCARDGSSPYYYSMEYWGQGTTVTVSS VL: EIVLTQSPATLSLSPGERATLSCSATSSVSYMHWFQQKPGQAPRLWIYSTSNLASGIPARFSGSGSGTDFTLTISSLEPEDFAVYYCQQRSSYPFTFGPGTKLDIK | 58 pM |
| HAKE (antibody, human IgG1, V domains shown, human IgG1/kappa) VH: EVQLVESGGGLVQPGGSLRLSCAASGFSLTIYGAHWVRQAPGKGLEWVSVIWAGGSTNYNSALMSRFTISKDNSKNTVYLQMNSLRAEDTAVYYCARDGSSPYYYSMEYWGQGTTVTVSS VL: EIVLTQSPATLSLSPGERATLSCSATSSVSYMHWFQQKPGQAPRLLIYSTSNLASGVPARFSGSGSGTDFTLTISSLEPEDFAVYYCQQRSSYPFTFGPGTKLDIK | 52 pM |
| HAKF (antibody, human IgG1, V domains shown, human IgG1/kappa) VH: EVQLVESGGGLVQPGGSLRLSCAASGFSLTIYGAHWVRQAPGKGLEWVSVIWAGGSTNYNSALMSRFTISKDNSKNTVYLQMNSLRAEDTAVYYCARDGSSPYYYSMEYWGQGTTVTVSS VL: EIVLTQSPATLSLSPGERATLSCSATSSVSYMHWFQQKPGQAPRLLIYSTSNLASGIPARFSGSGSGTDYTLTISSLEPEDFAVYYCQQRSSYPFTFGPGTKLDIK | 78 pM and 62 pM |
| HAKFmut (antibody, human IgG1, V domains shown, human IgG1/kappa) VH: EVQLVESGGGLVQPGGSLRLSCAASGFSLTIYGAHWVRQAPGKGLEWVSVIWAGGSTNYNSALMSRFTISKDNSKNTVYLQMNSLRAEDTAVYYCARDGSSPYYYSMEYWGQGTTVTVSS VL: EIVLTQSPATLSLSPGERATLSCSATSSVSYMHWFQQKPGQAPRLLIYSTSNLASGIPARFSGSGSGTDYTLTISSLEPEDFAVYYCQQRSSYPYTFGPGTKLDIK | 86 pM |
| HAKG (antibody, human IgG1, V domains shown, human IgG1/kappa) VH: EVQLVESGGGLVQPGGSLRLSCAASGFSLTIYGAHWVRQAPGKGLEWVSVIWAGGSTNYNSALMSRFTISKDNSKNTVYLQMNSLRAEDTAVYYCARDGSSPYYYSMEYWGQGTTVTVSS VL: EIVLTQSPATLSLSPGERATLSCSATSSVSYMHWYQQKPGQAPRLLIYSTSNLASGIPARFSGSGSGTDFTLTISSLEPEDFAVYYCQQRSSYPFTFGPGTKLDIK | 189 pM |
| HBKA (antibody, human IgG1, V domains shown, human IgG1/kappa) VH: EVQLVESGGGLVQPGGSLRLSCAVSGFSLTIYGAHWVRQAPGKGLEWLGVIWAGGSTNYNSALMSRLSISKDNSKNTVYLQMNSLRAEDTAVYYCARDGSSPYYYSMEYWGQGTTVTVSS VL: EIVLTQSPATLSLSPGERATLSCSATSSVSYMHWFQQKPGQAPRLLIYSTSNLASGIPARFSGSGSGTDFTLTISSLEPEDFAVYYCQQRSSYPFTFGPGTKLDIK | 55 pM and 70 pM |
| HBKB (antibody, human IgG1, V domains shown, human IgG1/kappa) VH: EVQLVESGGGLVQPGGSLRLSCAVSGFSLTIYGAHWVRQAPGKGLEWLGVIWAGGSTNYNSALMSRLSISKDNSKNTVYLQMNSLRAEDTAVYYCARDGSSPYYYSMEYWGQGTTVTVSS VL: EIILTQSPATLSLSPGERATLSCSATSSVSYMHWFQQKPGQAPRLWIYSTSNLASGVPARFSGSGSGTDYTLTISSLEPEDFAVYYCQQRSSYPFTFGPGTKLDIK | 56 pM |
| HBKC (antibody, human IgG1, V domains shown, human IgG1/kappa) VH: EVQLVESGGGLVQPGGSLRLSCAVSGFSLTIYGAHWVRQAPGKGLEWLGVIWAGGSTNYNSALMSRLSISKDNSKNTVYLQMNSLRAEDTAVYYCARDGSSPYYYSMEYWGQGTTVTVSS VL: EIILTQSPATLSLSPGERATLSCSATSSVSYMHWFQQKPGQAPRLLIYSTSNLASGIPARFSGSGSGTDFTLTISSLEPEDFAVYYCQQRSSYPFTFGPGTKLDIK | 33 pM |
| HBKD (antibody, human IgG1, V domains shown, human IgG1/kappa) VH: EVQLVESGGGLVQPGGSLRLSCAVSGFSLTIYGAHWVRQAPGKGLEWLGVIWAGGSTNYNSALMSRLSISKDNSKNTVYLQMNSLRAEDTAVYYCARDGSSPYYYSMEYWGQGTTVTVSS VL: EIVLTQSPATLSLSPGERATLSCSATSSVSYMHWFQQKPGQAPRLWIYSTSNLASGIPARFSGSGSGTDFTLTISSLEPEDFAVYYCQQRSSYPFTFGPGTKLDIK | 39 pM |
| HBKE (antibody, human IgG1, V domains shown, human IgG1/kappa) VH: EVQLVESGGGLVQPGGSLRLSCAVSGFSLTIYGAHWVRQAPGKGLEWLGVIWAGGSTNYNSALMSRLSISKDNSKNTVYLQMNSLRAEDTAVYYCARDGSSPYYYSMEYWGQGTTVTVSS VL: EIVLTQSPATLSLSPGERATLSCSATSSVSYMHWFQQKPGQAPRLLIYSTSNLASGVPARFSGSGSGTDFTLTISSLEPEDFAVYYCQQRSSYPFTFGPGTKLDIK | 61 pM |
| HBKF (antibody, human IgG1, V domains shown, human IgG1/kappa) VH: EVQLVESGGGLVQPGGSLRLSCAVSGFSLTIYGAHWVRQAPGKGLEWLGVIWAGGSTNYNSALMSRLSISKDNSKNTVYLQMNSLRAEDTAVYYCARDGSSPYYYSMEYWGQGTTVTVSS VL: EIVLTQSPATLSLSPGERATLSCSATSSVSYMHWFQQKPGQAPRLLIYSTSNLASGIPARFSGSGSGTDYTLTISSLEPEDFAVYYCQQRSSYPFTFGPGTKLDIK | 66 pM and 51 pM |
| HBKFmut (antibody, human IgG1, V domains shown, human IgG1/kappa) VH: EVQLVESGGGLVQPGGSLRLSCAVSGFSLTIYGAHWVRQAPGKGLEWLGVIWAGGSTNYNSALMSRLSISKDNSKNTVYLQMNSLRAEDTAVYYCARDGSSPYYYSMEYWGQGTTVTVSS VL: EIVLTQSPATLSLSPGERATLSCSATSSVSYMHWFQQKPGQAPRLLIYSTSNLASGIPARFSGSGSGTDYTLTISSLEPEDFAVYYCQQRSSYPYTFGPGTKLDIK | 48 pM |
| HBKG (antibody, human IgG1, V domains shown, human IgG1/kappa) VH: EVQLVESGGGLVQPGGSLRLSCAVSGFSLTIYGAHWVRQAPGKGLEWLGVIWAGGSTNYNSALMSRLSISKDNSKNTVYLQMNSLRAEDTAVYYCARDGSSPYYYSMEYWGQGTTVTVSS VL: EIVLTQSPATLSLSPGERATLSCSATSSVSYMHWYQQKPGQAPRLLIYSTSNLASGIPARFSGSGSGTDFTLTISSLEPEDFAVYYCQQRSSYPFTFGPGTKLDIK | 212 pM |
| HCKA (antibody, human IgG1, V domains shown, human IgG1/kappa) VH: EVQLVESGGGLVQPGGSLRLSCAVSGFSLTIYGAHWVRQAPGKGLEWVSVIWAGGSTNYNSALMSRFTISKDNSKNTVYLQMNSLRAEDTAVYYCARDGSSPYYYSMEYWGQGTTVTVSS VL: EIVLTQSPATLSLSPGERATLSCSATSSVSYMHWFQQKPGQAPRLLIYSTSNLASGIPARFSGSGSGTDFTLTISSLEPEDFAVYYCQQRSSYPFTFGPGTKLDIK | 56 pM |
